Assay results from US20120283184A1 (published 2012).
Where a chain is given by its changes, count along the chain named.

B1: 2′Del F11 PR4 (designed binder)
chain: EVVAATPTSLLISWRHPHFPTRYYRITYGETGGNSPVQEFTVPLQPPTATISGLKPGVDYTITVYAVTMGQNDKELITPISINYRT
B2: 3′A8 PR4 (designed binder)
chain: B1 chain with M69V, G70A, Q71W, N72D, K74H, I77L
B3: 3′E10 PR4 (designed binder)
chain: B1 chain with M69A, Q71H, N72K, K74Q, I77L
B4: 2′Del G9 PR4 (designed binder)
chain: B1 chain with M69V, G70E, D73G, K74R, T78I
B5: 3′B12 PR4 (designed binder)
chain: B1 chain with M69V, G70A, Q71H, N72E, D73N, K74R, I77L
B6: 3C9 PR3 (designed binder)
chain: B1 chain with M69L, G70V, Q71R, K74H, I77L
B7: 3′D2 PR4 (designed binder)
chain: B1 chain with M69V, G70E, Q71S, D73G, K74H, E75A, I77F, T78V
B8: 3′A6 PR4 (designed binder)
chain: B1 chain with M69L, G70A, D73G, K74H, I77L
B9: 3′D8 PR4 (designed binder)
chain: B1 chain with M69A, Q71P, K74H, E75Q, I77F
B10: 2′DelC3 PR4 (designed binder)
chain: B1 chain with M69W, G70A, D73G, K74R, I77L
B11: 3′C12 PR4 (designed binder)
chain: B1 chain with M69I, Q71P, D73N, K74H, I77L
B12: 3′D3 PR4 (designed binder)
chain: B1 chain with M69P, Q71P, N72G, K74R
B13: 2′Del G11 PR4 (designed binder)
chain: B1 chain with M69G, N72M, D73N, K74R, E75V, I77M
B14: 3′B8 PR4 (designed binder)
chain: B1 chain with M69L, Q71Y, N72H, K74H, E75A, I77F
B15: 3′A9 PR4 (designed binder)
chain: B1 chain with M69L, G70A, Q71H, K74R, I77L
B16: 3D12 PR3 (designed binder)
chain: B1 chain with M69L, K74R, E75Q, I77L, T78V
B17: 3′B4 PR4 (designed binder)
chain: B1 chain with M69V, G70A, Q71W, D73G, K74H, I77M
B18: 2′DelH9 PR4 (designed binder)
chain: B1 chain with M69V, Q71W, N72S, D73G, K74H, I77F, T78V
B19: 2′DelB7 PR4 (designed binder)
chain: B1 chain with M69V, Q71Y, D73N, K74R, I77L
B20: 2′Del H6 PR4 (designed binder)
chain: B1 chain with M69T, Q71H, N72H, K74H, T78I
B21: 3′B11 PR4 (designed binder)
chain: B1 chain with M69E, G70T, Q71W, K74H, L76I, I77R
B22: 2′DelG5 PR4 (designed binder)
chain: B1 chain with M69V, D73N, K74H, I77L
B23: 3B4 PR3 (designed binder)
chain: B1 chain with M69V, D73E, K74H, I77L
B24: 3B5 PR3 (designed binder)
chain: B1 chain with M69F, D73G, K74H, E75A, I77L
B25: 3C3 PR3 (designed binder)
chain: B1 chain with G70E, D73G, K74H, I77F
B26: 3′F3 PR4 (designed binder)
chain: B1 chain with M69L, Q71H, K74R, I77L
B27: 3′C3 PR4 (designed binder)
chain: B1 chain with G70A, D73G, K74H, E75A, I77F
B28: 3′F6 PR4 (designed binder)
chain: B1 chain with M69I, G70E, N72S, D73G, K74L, E75Q, I77M
B29: 3A2 PR3 (designed binder)
chain: B1 chain with M69W, G70S, D73N, K74R, I77F
B30: 3C7 PR3 (designed binder)
chain: B1 chain with M69R, Q71L, K74G, I77L
B31: 3′F1 PR4 (designed binder)
chain: B1 chain with M69V, G70A, N72D, D73G, K74H, E75F, I77Y
B32: 2′DelE4 PR4 (designed binder)
chain: B1 chain with M69V, G70H, Q71W, D73G, K74H, I77M
B33: 3′A7 PR4 (designed binder)
chain: B1 chain with M69L, G70S, Q71D, N72S, D73G, K74H, E75A, I77F
B34: 2′DelC7 PR4 (designed binder)
chain: B1 chain with M69W, G70D, D73G, K74H, E75V, I77L
B35: 2′Del H5 PR4 (designed binder)
chain: B1 chain with M69L, Q71K, N72D, D73V, K74R, I77L
B36: 3F10 PR3 (designed binder)
chain: B1 chain with M69L, G70A, N72D, K74H, I77L
B37: 3′B1 PR4 (designed binder)
chain: B1 chain with M69E, G70A, Q71R, D73G, K74R, I77L
B38: 3′E1 PR4 (designed binder)
chain: B1 chain with M69V, G70A, Q71P, D73G, K74H, I77F
B39: 3′D9 PR4 (designed binder)
chain: B1 chain with M69G, G70Y, Q71Y, K74R, I77L
B40: 3′E5 PR4 (designed binder)
chain: B1 chain with M69V, G70A, Q71W, N72D, D73G, K74R, I77F
B41: 3′B2 PR4 (designed binder)
chain: B1 chain with M69V, Q71R, K74R, I77L
B42: 3A3 PR3 (designed binder)
chain: B1 chain with M69L, G70A, Q71Y, D73G, K74R, L76I
B43: 3F8 PR3 (designed binder)
chain: B1 chain with M69V, G70A, D73G, K74H, I77K
B44: 3′E9 PR4 (designed binder)
chain: B1 chain with M69V, G70E, N72D, D73G, K74H, E75V, I77Y, T78I
B45: 3G2 PR3 (designed binder)
chain: B1 chain with M69F, Q71P, N72S, K74H, E75V, I77L
B46: 2′DelA5 PR4 (designed binder)
chain: B1 chain with M69W, G70N, D73G, K74Q, I77F
B47: 3′E3 PR4 (designed binder)
chain: B1 chain with G70A, N72Y, D73G, K74R, I77L
B48: 2′Del H12 PR4 (designed binder)
chain: B1 chain with M69A, Q71G, D73G, K74H, I77L
B49: 3′C8 PR4 (designed binder)
chain: B1 chain with M69E, Q71L, K74H, I77M, T78I
B50: 3′B10 PR4 (designed binder)
chain: B1 chain with M69L, G70A, N72T, D73G, K74R, I77L
B51: 3′F2 PR4 (designed binder)
chain: B1 chain with M69L, Q71K, K74H, I77L
B52: 3′C5 PR4 (designed binder)
chain: B1 chain with M69D, G70A, Q71M, N72Y, D73G, K74R, I77M
B53: 3′E11 PR4 (designed binder)
chain: B1 chain with M69V, Q71P, N72H, K74R, I77L
B54: 2′DelH4 PR4 (designed binder)
chain: B1 chain with M69V, Q71P, D73E, K74R, E75M, I77M

Target: T1, human vascular endothelial growth factor receptor-2 Fc chimera (KDR-Fc) (human, UniProt P35968 20-764)
T1 construct: range 1-764; also called human VEGFR-2; not shown: human IgG1 Fc
T1 sequence (P35968 20-764 limits assumed, change not shown, form in doubt): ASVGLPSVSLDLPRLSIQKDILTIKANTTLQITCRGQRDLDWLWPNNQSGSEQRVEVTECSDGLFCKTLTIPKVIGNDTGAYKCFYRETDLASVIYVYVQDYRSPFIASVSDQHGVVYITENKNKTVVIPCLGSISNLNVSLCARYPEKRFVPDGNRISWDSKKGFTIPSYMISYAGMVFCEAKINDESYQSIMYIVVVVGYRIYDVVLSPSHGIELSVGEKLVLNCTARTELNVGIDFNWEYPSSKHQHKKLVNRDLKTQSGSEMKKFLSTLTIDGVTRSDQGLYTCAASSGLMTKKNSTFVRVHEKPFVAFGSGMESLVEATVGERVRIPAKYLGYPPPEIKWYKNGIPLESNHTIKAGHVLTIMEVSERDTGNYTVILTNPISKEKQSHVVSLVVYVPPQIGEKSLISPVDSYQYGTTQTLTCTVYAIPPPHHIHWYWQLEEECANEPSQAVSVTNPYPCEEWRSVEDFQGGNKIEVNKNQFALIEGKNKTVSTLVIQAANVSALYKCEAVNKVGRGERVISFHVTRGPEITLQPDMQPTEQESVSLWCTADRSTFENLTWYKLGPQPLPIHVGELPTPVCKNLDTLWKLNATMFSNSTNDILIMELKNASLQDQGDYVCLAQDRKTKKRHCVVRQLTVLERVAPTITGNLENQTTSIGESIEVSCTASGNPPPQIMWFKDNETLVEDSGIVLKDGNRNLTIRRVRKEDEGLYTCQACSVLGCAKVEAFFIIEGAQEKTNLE
Test: radioactive equilibrium binding, 1 nM KDR-Fc, % of input
Experimental: To prepare ³⁵S-labeled binding proteins for analysis, mRNA was prepared as described above for RNA-protein fusion production but the linker ligation step was omitted. The mRNA was expressed using rabbit reticulocyte lysate translation kit (Ambion) in the presence of ³⁵S-labeled Met at 30° C. for 1 hour. Expressed protein was purified on M2-agarose Flag beads (Sigma) as described above. This procedure produced the encoded protein without the nucleic acid tail. In a direct binding assay, VEGF-R2-Fc fusions in concentrations ranging from 0 to 200 nM were added to a constant concentration of the purified protein (0.2 or 0.5 nM) and incubated at 30° C. for 1 hour in buffer B. The receptor-binder complexes were captured using Protein A magnetic beads for another 10 minutes at room temperature using a Kingfisher™ The beads were washed with six reaction volumes of buffer B. The protein was eluted from the beads with 100 μL of 0.1 M KOH. 50 μL of the reaction mixture and elution were dried onto a LumaPlate-96 (Packard) and the amount of ³⁵S on the plate was measured using a TopCount NXT instrument (Packard). The amount of fibronectin-based scaffold protein bound to the target was estimated as a percent of radioactivity eluted from Protein A magnetic beads compare to radioactivity in the reaction mixture. Nonspecific binding of fibronectin-based scaffold proteins to the beads was determined by measuring binding in the absence of KDR-Fc and represented less than 1-2% of the input. Specific binding was obtained through subtraction of nonspecific binding from total binding. Data was analyzed using the GraphPad Prizm software (GraphPad Software, Inc, San Diego, Calif.), fitted using a one site, non-linear binding equation.

| Binding to 1 nM KDR, % | Binder |
| --- | --- |
| 27% | B1 |
| 27% | B2 |
| 21% | B3 |
| 33% | B4 |
| 28% | B5 |
| 16% | B6 |
| 19% | B7 |
| 19% | B8 |
| 27% | B9 |
| 29% | B10 |
| 33% | B11 |
| 42% | B12 |
| 22% | B13 |
| 14% | B14 |
| 25% | B15 |
| 24% | B16 |
| 38% | B17 |
| 20% | B18 |
| 32% | B19 |
| 28% | B20 |
| 23% | B21 |
| 19% | B22 |
| 17% | B23 |
| 20% | B24 |
| 17% | B25 |
| 37% | B26 |
| 32% | B27 |

| Binding to 1 nM KDR, % | Binder |
| --- | --- |
| 24% | B28 |
| 23% | B29 |
| 20% | B30 |
| 31% | B31 |
| 34% | B32 |
| 34% | B33 |
| 19% | B34 |
| 34% | B35 |
| 16% | B36 |
| 25% | B37 |
| 32% | B38 |
| 30% | B39 |
| 23% | B40 |
| 29% | B41 |
| 23% | B42 |
| 17% | B43 |
| 44% | B44 |
| 20% | B45 |
| 20% | B46 |
| 41% | B47 |
| 24% | B48 |
| 19% | B49 |
| 21% | B50 |
| 29% | B51 |
| 27% | B52 |
| 17% | B53 |
| 30% | B54 |
